Laboratory results from patent US20180016312A1 (Pieris, published 2018).
Changes are numbered by the printed parent chain.

T1: human angiopoietin-2 (human, UniProt O15123 19-496, limits assumed)
T1 construct: Bought recombinant protein with a His tag (detected by anti-HIS-tag antibody); also called human Ang-2; hAng-2
T1 sequence (looked up): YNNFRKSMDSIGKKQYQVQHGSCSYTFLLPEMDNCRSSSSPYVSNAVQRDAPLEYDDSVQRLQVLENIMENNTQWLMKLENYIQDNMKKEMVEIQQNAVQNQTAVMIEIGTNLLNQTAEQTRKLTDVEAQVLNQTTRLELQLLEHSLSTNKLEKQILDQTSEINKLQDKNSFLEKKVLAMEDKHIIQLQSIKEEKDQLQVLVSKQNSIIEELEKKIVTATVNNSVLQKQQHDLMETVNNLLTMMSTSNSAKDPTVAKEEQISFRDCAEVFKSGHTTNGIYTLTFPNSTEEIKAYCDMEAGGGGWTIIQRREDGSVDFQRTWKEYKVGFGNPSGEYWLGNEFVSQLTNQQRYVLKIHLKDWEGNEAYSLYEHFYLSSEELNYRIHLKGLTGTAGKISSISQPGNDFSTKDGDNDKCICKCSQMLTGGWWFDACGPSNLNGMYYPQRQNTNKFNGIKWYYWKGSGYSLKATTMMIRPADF

T2: mouse angiopoietin-2 (mouse, UniProt O35608 19-496, limits assumed)
T2 construct: Bought recombinant protein; also called mouse Ang-2; mAng-2
T2 sequence (looked up): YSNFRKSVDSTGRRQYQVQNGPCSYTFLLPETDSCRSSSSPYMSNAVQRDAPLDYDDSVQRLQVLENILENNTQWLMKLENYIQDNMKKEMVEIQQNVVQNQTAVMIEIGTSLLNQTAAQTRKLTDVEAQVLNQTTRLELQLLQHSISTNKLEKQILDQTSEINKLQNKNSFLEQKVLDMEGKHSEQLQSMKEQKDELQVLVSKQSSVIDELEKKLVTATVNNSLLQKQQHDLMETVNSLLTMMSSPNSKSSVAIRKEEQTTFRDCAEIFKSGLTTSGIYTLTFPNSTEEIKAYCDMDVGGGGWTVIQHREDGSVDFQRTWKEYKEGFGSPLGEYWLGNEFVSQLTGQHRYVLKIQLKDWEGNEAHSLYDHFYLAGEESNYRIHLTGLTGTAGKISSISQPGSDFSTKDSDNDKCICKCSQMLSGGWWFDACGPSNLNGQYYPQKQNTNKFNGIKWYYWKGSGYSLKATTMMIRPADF

T3: human angiopoietin-1 (human, UniProt Q15389 20-498, limits assumed)
T3 construct: Bought recombinant protein; also called human Ang-1; hAng-1
T3 sequence (looked up): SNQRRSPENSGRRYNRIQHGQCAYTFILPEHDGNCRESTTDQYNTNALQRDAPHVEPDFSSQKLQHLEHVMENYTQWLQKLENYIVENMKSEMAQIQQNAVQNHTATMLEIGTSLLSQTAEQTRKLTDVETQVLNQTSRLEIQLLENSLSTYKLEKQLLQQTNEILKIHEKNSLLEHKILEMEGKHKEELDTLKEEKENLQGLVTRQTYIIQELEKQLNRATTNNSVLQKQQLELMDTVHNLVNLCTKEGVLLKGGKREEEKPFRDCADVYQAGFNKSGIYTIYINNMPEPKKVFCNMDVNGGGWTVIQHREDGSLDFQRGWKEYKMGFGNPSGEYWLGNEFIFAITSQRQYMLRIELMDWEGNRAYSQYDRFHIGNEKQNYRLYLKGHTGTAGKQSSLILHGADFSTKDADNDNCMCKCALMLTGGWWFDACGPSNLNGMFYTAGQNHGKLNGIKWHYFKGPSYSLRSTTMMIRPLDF

B1: hNGAL lipocalin mutein SEQ ID NO: 7 (designed binder)
chain: QDSTSDLIPAPPLSKVPLQQNFQDNQFHGKWYVVGHAGNYILREDKDPEKMWATIYELKEDKSYDVTEVSFGPKKCNYRIWTFVPGSQPGEFTLGGIKSPPGDTSTLVRVVSTNYNQHAMVFFKHVLQNREFFEITLYGRTKELTSELKENFIRFSKSLGLPENHIVFPVPIDQCIDGSAWSHPQFEK
notes: Mutein of mature hNGAL; Biotinylated with NHS-PEG4-Biotin for the SPR assay
B2: hNGAL lipocalin mutein SEQ ID NO: 11 (designed binder)
chain: B1 chain with H36Q, E49V, P100L, D103G
notes: as for B1
B3: mature hNGAL (SEQ ID NO: 16), negative control (other)
chain: QDSTSDLIPAPPLSKVPLQQNFQDNQFQGKWYVVGLAGNAILREDKDPQKMYATIYELKEDKSYNVTSVLFRKKKCDYWIRTFVPGCQPGEFTLGNIKSYPGLTSYLVRVVSTNYNQHAMVFFKKVSQNREYFKITLYGRTKELTSELKENFIRFSKSLGLPENHIVFPVPIDQCIDG
notes: Used as negative control; Biotinylated for the SPR assay; also called human lipocalin 2; human NGAL

Tests used:
[1] = molecular target: T1, human angiopoietin-2; assay: competition cell ECL; hAng-2 pre-incubated with binder, free Ang-2 captured on HEK:hTie-2 cells (competitor)
[2] = molecular target: T1, human angiopoietin-2; assay: SPR Biacore T200; upper end of the range, tied to SEQ ID NO: 7 by Table 3
Method: (§1) In the SPR affinity assay, biotinylated muteins and negative control were captured on a sensor chip CAP using the Biotin CAPture Kit (GE Healthcare): Sensor Chip CAP is pre-immobilized with an ssDNA oligo. Undiluted Biotin CAPture Reagent (streptavidin conjugated with the complementary ss-DNA oligo) was applied at a flow rate of 2 μl/min for 300 s. Subsequently, 0.02 μg/mL of biotinylated muteins or negative control were applied for 300 s at a flow rate of 5 μl/min. […] The reference channel was loaded with Biotin CAPture Reagent only.
(§2) Applying a flow rate of 30 μL/min, a multi cycle kinetics approach was used with a sample contact time of 180 s and a dissociation time of 4600 s. All measurements were performed at 25° C. […] Data were evaluated with Biacore T200 Evaluation software (V 1.0). Double referencing was used. A 1:1 Binding model was used to fit the raw data even though the analyte was known to be a multimer.

[3] = molecular target: T1, human angiopoietin-2; assay: ELISA; Ang-2 coated, mutein detected by anti-Streptag-HRP
[4] = molecular target: T1, human angiopoietin-2; assay: SPR Biacore T200; biotinylated mutein captured, hAng-2 analyte, 1:1 model, 25 C
Method: as §1, §2

[5] = molecular target: T2, mouse angiopoietin-2; assay: competition cell ECL; mAng-2 pre-incubated with binder, free Ang-2 captured on HEK:hTie-2 cells (competitor)
[6] = molecular target: T1, human angiopoietin-2; assay: competition ELISA; 0.5 nM hAng-2 pre-incubated with binder, free hAng-2 captured on hTie-2 Fc (competitor)
[7] = molecular target: T3, human angiopoietin-1; assay: competition ELISA format (FIG. 2)
Method: In the following detailed experimental protocol, incubation and washing steps were performed as described above in the competition ELISA protocol (see Example 5).

[8] = molecular target: T1, human angiopoietin-2; assay: cell-based or functional assay
[9] = molecular target: T1, human angiopoietin-2; assay: SPR Biacore T200; lower end of the range, tied to SEQ ID NO: 11 by Table 3
Method: as §1, §2

[10] = molecular target: T1, human angiopoietin-2; assay: SPR Biacore T200; biotinylated SEQ ID NO: 16 captured, hAng-2 analyte
Method: as §1, §2

Binder | IC50 [1] [nM] | Kd [2] [nM] | EC50 [3] [nM] | Kd [4] [nM] | koff [4] [s⁻¹] | IC50 [5] [nM] | IC50 [6] [nM] | binding result [7] | IC50 mean, LEC proliferation assay (CellTiter-Glo) [8] [nM] | Kd [9] [nM] | binding result [10]
B1 | 3.6 | 0.2 to 1.4 | 2.1 | 1.43 | 0.00026 | 1.23 | 0.0619 | binds | 0.199 |  | 
B2 | 4.79 |  | 2.3 | 0.21 | 0.00087 | 1.45 | 0.0988 |  | 0.169 | 0.2 to 1.4 | 
B3 |  |  |  |  |  |  |  |  |  |  | no binding (tested: human Ang-2 at 1-27 nM)
